Test results: US20110111406A1 (published 2011)
Like-named read-outs stand apart in the source and are kept apart here.

T1: recombinant soluble human IL-6 receptor (SR344) (human, UniProt P08887 20-344)
T1 construct: In the 'membrane-type IL-6 receptor' Biacore assays the same SR344 was biotinylated and immobilized via streptavidin; also called soluble IL-6 receptor; membrane-type IL-6 receptor (as biotinylated SR344 immobilized on the sensor chip)
T1 sequence (looked up): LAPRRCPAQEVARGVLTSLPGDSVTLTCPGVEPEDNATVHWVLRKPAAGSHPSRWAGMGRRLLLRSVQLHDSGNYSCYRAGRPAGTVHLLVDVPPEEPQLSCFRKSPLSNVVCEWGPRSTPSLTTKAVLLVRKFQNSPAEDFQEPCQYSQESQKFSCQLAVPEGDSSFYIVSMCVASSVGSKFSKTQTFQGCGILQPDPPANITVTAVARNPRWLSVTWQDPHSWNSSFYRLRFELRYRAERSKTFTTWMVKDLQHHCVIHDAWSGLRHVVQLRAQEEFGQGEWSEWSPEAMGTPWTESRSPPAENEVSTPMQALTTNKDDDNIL

T2: soluble mouse IL-31 receptor (mouse, UniProt Q8K5B1 19-499)
T2 construct: Soluble form
T2 sequence (looked up): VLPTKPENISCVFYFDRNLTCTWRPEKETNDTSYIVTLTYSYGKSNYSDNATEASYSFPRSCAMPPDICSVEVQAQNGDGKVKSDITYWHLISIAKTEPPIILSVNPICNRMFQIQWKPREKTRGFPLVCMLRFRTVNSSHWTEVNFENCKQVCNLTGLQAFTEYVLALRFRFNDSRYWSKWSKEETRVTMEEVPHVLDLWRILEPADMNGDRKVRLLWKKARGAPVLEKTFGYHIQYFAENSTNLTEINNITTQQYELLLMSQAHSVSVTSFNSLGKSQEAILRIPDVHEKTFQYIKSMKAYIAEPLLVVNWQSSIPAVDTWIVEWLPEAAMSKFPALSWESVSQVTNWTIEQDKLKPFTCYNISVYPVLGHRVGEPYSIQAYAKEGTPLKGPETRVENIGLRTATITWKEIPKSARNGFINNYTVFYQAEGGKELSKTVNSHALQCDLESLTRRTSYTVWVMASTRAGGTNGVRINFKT


How the values were obtained:
[1] = biological target: T1, recombinant soluble human IL-6 receptor …; assay: Biacore T100, SR344 as analyte; KD(pH5.8)/KD(pH7.4) compared with WT
Experimental: (§1) Kinetic analyses of antigen-antibody reactions at pH 5.8 and pH 7.4 were carried out using Biacore T100 (GE Healthcare) on the four antibodies: humanized PM1 antibody (WT) and H3pI/L73, CLH5/L73, and H170/L82 produced in Examples 2 and 4 (buffer: 10 mM MES (pH 7.4 or pH 5.8), 150 mM NaCl, and 0.05% Tween 20). Various antibodies were bound onto a sensor chip immobilized with recomb-protein A/G (Pierce) by amine coupling. SR344 adjusted to concentrations of 9.8 to 400 nM was injected to the chip as an analyte. […] All the measurements were carried out at 37° C. Association rate constants kₐ (1/Ms) and dissociation rate constants kd (1/s) were calculated using Biacore T100 Evaluation Software (GE Healthcare), and dissociation constants KD (M) were calculated on the basis of those values (Table 5). Moreover, the ratio of the affinities at pH 5.8 and pH 7.4 were calculated for each clone to evaluate pH-dependent binding. All the measurements were carried out at 37° C.

[2] = biological target: T1, recombinant soluble human IL-6 receptor …; assay: Biacore T100, integrated RU of SR344 bound over ten cycles of pH 7.4 binding and pH 5.8 exposure, 37C
From the text: Biacore (GE Healthcare) was used to evaluate that the antibodies binding at pH 7.4 and dissociating at pH 5.8 were able to bind to the antigen multiple times. The antibody to be evaluated was bound to a recomb-protein A/G (Pierce)-immobilized sensor chip by the amine coupling method, and a mobile phase of pH 7.4 was allowed to flow (step 1). SR344 solution adjusted to pH 7.4 was then allowed to flow as an analyte to bind SR344 to the antibody at pH 7.4 (step 2). This binding at pH 7.4 mimics the antigen binding in plasma. Subsequently, buffer adjusted to pH 5.8 alone (not containing SR344) was added as an analyte to expose the antigen bound to the antibody to acidic conditions (step 3). This dissociation at pH 5.8 mimics the binding state of antigen-antibody complexes in endosomes. Subsequently, step 2 was repeated. This mimics the rebinding of antibody that has been returned to plasma by FcRn to a new antigen. Subsequently, […] was repeated to expose the antibody-antigen complex to acidic conditions.
The produced pH-dependent binding clones described above were analyzed using Biacore T100 (GE Healthcare) for their ability to bind to the antigen SR344 multipe times at pH 5.8 and pH 7.4. More specifically, the analysis was carried out as follows. All the measurements were carried out at 37° C. […]

[3] = biological target: T1, recombinant soluble human IL-6 receptor …; assay: Biacore T100, antibody captured on protein A/G, SR344 as analyte, 37C; ratio of KD at pH 5.8 to pH 7.4
Experimental: as §1

[4] = biological target: T1, recombinant soluble human IL-6 receptor …; assay: as above; remark: listed apart in the source
Experimental: (§2) Kinetic analysis of antigen-antibody reactions at pH 7.4 and pH 5.8 was carried out using Biacore T100 (GE Healthcare) for the four types of antibodies prepared: WT-IgG1, H54/L28-IgG1, H170/L82-IgG1, and Fv4-IgG1(buffer: 10 mM MES (pH 7.4 or pH 5.8), 150 mM NaCl, 0.05% Surfactant-P20). The antibodies were bound to a sensor chip on which recomb-protein A/G (Pierce) was immobilized by amine coupling, and SR344 adjusted to an appropriate concentration was injected therein as an analyte. The association with and dissociation from SR344 of each type of antibody were observed on a real-time basis. All the measurements were carried out at 37° C. Association rate constants kₐ (1/Ms) and dissociation rate constants kd (1/s) were calculated using Biacore T100 Evaluation Software (GE Healthcare), and dissociation constants KD (M) were calculated based on those values (Table 17).

[5] = biological target: T1, recombinant soluble human IL-6 receptor …; assay: Biacore T100, antibody captured on protein A/G, SR344 as analyte, 37C; ratio of kd at pH 5.8 to pH 7.4
Experimental: as §2

[6] = biological target: T2, soluble mouse IL-31 receptor; assay: Biacore T100, soluble mouse IL-31 receptor as analyte; KD(pH 5.5)/KD(pH 7.4) compared with Anti-IL31R wild type
Experimental: Kinetic analysis of antigen-antibody reactions at pH 5.5 and pH 7.4 was carried out using Biacore T100 (GE Healthcare) for the two types of antibodies prepared as mentioned above: Anti-IL31R wild type and Anti-IL31R clone 1 (buffer: DPBS(−) (pH 7.4 or pH 5.5), 150 mM NaCl, 0.01% Tween 20, 0.02% NaN₃). The antibodies were bound to a sensor chip on which recomb-protein A/G (Pierce) was immobilized by amine coupling, and then the soluble mouse IL-31 receptor (prepared according to the method described in WO 2007/142325) adjusted to an appropriate concentration was injected therein as an analyte. All the measurements were carried out at 25° C. Association rate constants kₐ (1/Ms) and dissociation rate constants kd (1/s) were calculated using Biacore T100 Evaluation Software (GE Healthcare), and dissociation constants KD (M) were calculated based on those values (Table 16). Furthermore, the ratio of affinity at pH 5.5 and pH 7.4 was calculated for each clone to evaluate the pH-dependent binding.

pH-dependent binding (affinity ratio) relative to WT [1]	total amount of antigen bound over ten cycles relative to WT [2]	KD(pH5.8)/KD(pH7.4) [3]	KD(pH5.8)/KD(pH7.4) [4]	kd(pH 5.8)/kd(pH 7.4) [5]	pH-dependent binding ability relative to WT [6]	Binder
15 times	~4 times	66.1				CLH5/L73 (antibody, IgG1, V domains shown) VH: QVQLQESGPGLVKPSETLSLTCAVSGYSISHDHAWSWVRQPPGEGLEWIGHISYSGITNYNPHLKGRVTISRDTSKNQFSLKLSSVTAADTAAYYCARFLARITAHDHWGEGTLVTVSS VL: DIQMTQSPSSLSASVGDSVTITCQASQHISSHLNWYQQKPGKAPELLIYYGSHLHSGVPSRFSGSGSGTDFTFTISSLEAEDAATYYCGQGNRLPYTFGQGTKVEIE
15 times	~4 times	394	61.9	11.4		H170/L82 (antibody, IgG1, V domains shown, expressed and purified as IgG (IgG1); also called H170/L82-IgG1) VH: QVQLQESGPGLVKPSETLSLTCAVSGHSISHHHAHSWVRQPPGEGLEWIGYISYSGITHYNPHLKGRVTISRDTSKNQFSLKLSSVTAADTAAYYCARVLARITAMDHWGEGTLVTVSS VL: DIQMTQSPSSLSASVGDSVTITCQASQDISSHLNWYQQKPGKAPELLIYYGSHLHSGVPSRFSGSGSGTDFTFTISSLEAEDAATYYCGQGNRLPYTFGQGTKVEIE
					~300 times	Anti-IL31R clone 1 (antibody, human IgG1, lambda, V domains shown) VH: not shown VL: LPVLTQPPSVSVAPGQTARITCGGNNIGSKTVYWYQQEPGQAPVLVVYDDTDRPAGIPERFSGANSGNTATLTISRVEAGDEADYYCQVWDSSTDHGVFGGGTKLTVLG
